This note sets out measurements from patent publication US12540174 (NASCENT BIOTECH, dated 2026).

As a reminder, the EC50 is the midpoint of the concentration-response curve. The term koff denotes a measure of how fast the partners let go of each other. As a reminder, the kon is the rate constant with which the complex forms. The Kd is the free concentration of one partner at which half of the binding sites on the other are occupied at equilibrium, for simple one-to-one binding.

Test [1] deals with T1, antigen of the potency binding ELISA of Example 1 (not named).
T1 construct: kept apart from m2 so as not to guess
Briefly: binding ELISA (potency assay), antigen not named; lot stored in PETG serum vial. In general terms: ELISA stands for enzyme-linked immunosorbent assay.

Test [2] addresses T1, antigen of the potency binding ELISA of …. Briefly: binding ELISA (potency assay), antigen not named; lot stored in glass serum containers.
Test [3] shares this target. Briefly: binding ELISA (potency assay), antigen not named; lot stored in polypropylene cryovial.
For test [4] the target is unchanged. The experiment in a line: binding ELISA, antigen not named; third lot (reference standard) stored in PETG serum vial.
The target is the same in test [5]. Briefly: binding ELISA, antigen not named; third lot (reference standard) stored in polypropylene cryovials, 3 vials.
Test [6] addresses T2, recombinant human vimentin (human, UniProt P08670 1-466, limits assumed).
T2 construct: also called recombinant vimentin
The experiment in a line: BLI, Octet HTX, 25 C; pritumumab on anti-human-Fc (AHC) biosensors, recombinant human vimentin as analyte, 1:1 model. As for the experimental part: (§1) To determine binding affinity of the antibody Pritumumab for vimentin. Octet HTX was employed to measure the antibody binding to human vimentin. Binding experiments were performed on Octet HTX at 25° C. Pritumumab (10 ug/ml) was loaded onto Anti-Human-Fc (AHC) biosensors. Loaded sensors were dipped into a serial of antigen dilutions (recombinant human vimentin) (300 nM start, 1:3 down, 7 points). Kinetic constants were calculated using a monovalent (1:1) model.
On the technique in general: Biolayer interferometry detects binding as a change in optical thickness at a sensor tip.

The target in test [7] is T2, recombinant human vimentin. The experiment in a line: BLI, Octet HTX, 25 C; pritumumab on anti-human-Fc (AHC) biosensors, recombinant human vimentin as analyte (300 nM start, 1:3, 7 points), 1:1 model. As for the experimental part: as §1
The target of test [8] is T1, antigen of the potency binding ELISA of …. Briefly: binding (potency) ELISA, OD 450 nm against Log10 [mAb]; clinical drug substance lot stored in polypropylene cryovial; coated antigen not named.
The target is the same in test [9]. The experiment in a line: binding (potency) ELISA, OD 450 nm against Log10 [mAb]; reference standard (tox) lot stored in PETG serum vial; coated antigen not named; the table cell has no unit, ug/ml is taken from the concentration axis.
Test [10] has the same target. The experiment in a line: binding (potency) ELISA, OD 450 nm against Log10 [mAb]; reference standard (tox) lot stored in polypropylene cryovial 1; coated antigen not named; the table cell has no unit, ug/ml is taken from the concentration axis.
The target is the same in test [11]. The experiment in a line: binding (potency) ELISA, OD 450 nm against Log10 [mAb]; reference standard (tox) lot stored in polypropylene cryovial 2; coated antigen not named; the table cell has no unit, ug/ml is taken from the concentration axis.
The target is the same in test [12]. Briefly: binding (potency) ELISA, OD 450 nm against Log10 [mAb]; reference standard (tox) lot stored in polypropylene cryovial 3; coated antigen not named; the table cell has no unit, ug/ml is taken from the concentration axis.

T2 sequence (P08670 whole entry): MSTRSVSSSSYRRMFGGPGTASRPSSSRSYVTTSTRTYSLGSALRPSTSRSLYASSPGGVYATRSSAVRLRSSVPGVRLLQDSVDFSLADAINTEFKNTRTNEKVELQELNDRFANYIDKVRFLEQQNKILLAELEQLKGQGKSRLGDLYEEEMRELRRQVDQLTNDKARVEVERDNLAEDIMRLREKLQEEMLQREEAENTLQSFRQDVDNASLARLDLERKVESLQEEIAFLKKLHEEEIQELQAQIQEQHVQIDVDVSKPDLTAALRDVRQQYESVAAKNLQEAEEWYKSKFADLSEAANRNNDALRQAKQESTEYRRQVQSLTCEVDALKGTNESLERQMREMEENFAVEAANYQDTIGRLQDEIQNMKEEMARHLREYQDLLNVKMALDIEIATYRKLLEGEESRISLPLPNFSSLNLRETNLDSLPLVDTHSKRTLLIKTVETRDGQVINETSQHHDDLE

B1: pritumumab (antibody, human IgG1, kappa, V domains shown)
VH: EVQLLESGGDLVQPGGSLRLSCAASGFTFSNYAMSWVRQAPGKGLEWVSAITPSGGSTNYADSVKGRFTISRDNSQNTLYLQMNSLRVEDTAVYICGRVPYRSTWYPLYWGQGTLVTVSS
VL: DIQMTQSPSSLSASVGDRVTITCRASQDISNYLAWFQQKPGKAPKSLIYAASSLHSKVPTQFSGSGSGTDFTLTISSLQPEDFATYYCLQYSTYPITFGGGTKVEIKR
notes: Several lots stored in different containers (glass, PETG, polypropylene) were tested; also called Pritumumab human monoclonal antibody
Turning to B1, the EC50 in [1] was 9.6 µg/mL; in [2] it was 8.25 µg/mL; in test [3], 20 µg/mL; in test [4], 11 µg/mL; in [5] it was 37 to 40 µg/mL; in [8] it was 20.1 µg/mL. Moreover, the EC50 turned out to be 11.4 µg/mL in [9], 38 µg/mL in test [10], 37.1 µg/mL in [11] and 40.2 µg/mL in [12]. In addition, the koff in test [6] stood at 0.000443 s⁻¹. For the same molecule, the kon in test [6] came to 58700 M⁻¹ s⁻¹. In addition, the Kd in test [7] amounted to 7.55 nM.
